Assay [1] addresses HLA-A2 molecule on the surface of tumor cell lines (human). The assay can be described thus: flow cytometry on NCI-H522 cells (Non-small cell lung cancer). A general note: In flow cytometry, cells or beads pass a laser one at a time.
The target is the same in assay [2]. The assay can be described thus: flow cytometry on U251 cells (Glioblastoma).
Assay [3] shares this target. Briefly: flow cytometry on SKHEP-1 cells (Liver).
For assay [4] the target is unchanged. Briefly: flow cytometry on SW480 cells (Colon).
The target is the same in assay [5]. The assay can be described thus: flow cytometry on SKN-JC-2 cells (NB).
Assay [6] shares this target. Briefly: flow cytometry on K562-HLA-A2 cells (Leukemia).
The target is the same in assay [7]. The assay can be described thus: flow cytometry on HepG2 cells (Liver).
Assay [8] has the same target. The assay can be described thus: flow cytometry on OVCAR-3 cells (Ovarian).
Assay [9] has the same target. The assay can be described thus: flow cytometry on U87 cells (Glioblastoma).
Assay [10] has the same target. The assay can be described thus: flow cytometry on SKN-JC-1 cells (NB).
Assay [11] has the same target. Briefly: flow cytometry on Molt-4 cells (Leukemia).
Assay [12] has the same target. The assay can be described thus: flow cytometry on MDA-MB-231(HTB-26) cells (Breast).
Assay [13] has the same target. The assay can be described thus: flow cytometry on JN-DSRCT cells (Desmoplastic small round cell tumor).
Assay [14] shares this target. Briefly: flow cytometry on JMN cells (Mesothelioma).
The target is the same in assay [15]. The assay can be described thus: flow cytometry on LAN-1 cells (NB).
The target is the same in assay [16]. The assay can be described thus: flow cytometry on THP-1 cells (Leukemia).
The target is the same in assay [17]. Briefly: flow cytometry on BA25-17 cells (Leukemia).
The target is the same in assay [18]. Briefly: flow cytometry on OVCAR3-pp65 cells (Ovarian).
For assay [19] the target is unchanged. The assay can be described thus: flow cytometry on SK-ES-1 cells (Ewing's sarcoma).
For assay [20] the target is unchanged. The assay can be described thus: flow cytometry on SKNLD cells (NB).
For assay [21] the target is unchanged. Briefly: flow cytometry on MCF-7 cells (Breast).
Assay [22] has the same target. Briefly: flow cytometry on BV-173 cells (Leukemia).
Assay [23] shares this target. The assay can be described thus: flow cytometry on SKOV-3 cells (Ovarian).
The target is the same in assay [24]. The assay can be described thus: flow cytometry on SKMEL-5 cells (Melanoma).
For assay [25] the target is unchanged. The assay can be described thus: flow cytometry on BA25-69 cells (Leukemia).
Assay [26] shares this target. Briefly: flow cytometry on U2 OS cells (Osteosarcoma).
Assay [27] shares this target. The assay can be described thus: flow cytometry on MDA-MB-361(HTB-27) cells (Breast).
Assay [28] shares this target. The assay can be described thus: flow cytometry on NCI-H345 cells (Small cell lung cancer).
Assay [29] shares this target. The assay can be described thus: flow cytometry on K562 cells (Leukemia).
The target is the same in assay [30]. The assay can be described thus: flow cytometry on MDA-MB-468(HTB-132) cells (Breast).
The target is the same in assay [31]. Briefly: flow cytometry on Caco-2 (HTB-37) cells (Colon).
For assay [32] the target is unchanged. The assay can be described thus: flow cytometry on HTB37-pp65/GFP cells (Colon).
The target is the same in assay [33]. Briefly: flow cytometry on SKBR3 cells (Breast).
Assay [34] has the same target. Briefly: flow cytometry on SKNJB cells (NB).
Assay [35] has the same target. Briefly: flow cytometry on Colo 205 cells (Colon).
Another assay concerns the target T1, HLA-A2 on T2 cells (human).
T1 construct: No peptide added; also called T2 cells alone; T2 cells without peptide
The assay can be described thus: T2 cells pulsed with peptide, staining with anti-HLA-A2 BB7.2.

The target of assay [36] is T2, biotinylated HLA-A2/WT1126 (…) monomer (human, biotin at a specific biotinylation site at the C-terminus).
T2 construct: also called HLA-A2-WT1 monomer; WT1126/HLA-A2
Briefly: SPR Biacore T100; biotinylated pMHC captured, antibody injected; 1:1 fit. (SPR reads the build-up and loss of mass on a sensor chip optically.)
Procedure: Kinetics and affinities of various antibodies and WT1₁₂₆/HLA-A2 were analyzed by surface plasmon resonance technology using a Biacore T100 instrument (GE healthcare). Biotinylated WT1₁₂₆/HLA-A2 was captured by streptavidin-fusion protein on a sensor chip (CM5). A control reference surface was prepared for nonspecific binding and refractive index changes. For analysis of the kinetics of interactions, varying concentrations of antibodies were injected at flow rate of 30 μl/min using a running buffer containing 10 mM HEPES, 150 mM NaCl, 3 mM EDTA, and 0.05% Surfactant P-20 (pH 7.4). The association and dissociation phase data were fitted simultaneously to a 1:1 model by using BIAevaluation 3.2. All the experiments were done at 25° C.

In assay [37] the target is T2, biotinylated HLA-A2/WT1126 (…) monomer. The assay can be described thus: ELISA: wells coated with HLA-A2-WT1 ([..]) monomer, serially diluted scFv, HRP anti-Flag detection, OD 490 nm. (ELISA stands for enzyme-linked immunosorbent assay.)
Procedure: (§1) The specificity of individual phage clones, soluble scFv and scFv-Fc antibodies was assessed by ELISA at RT with indirectly coated HLA-A2/peptide complexes. Vinyl flat bottom microtiter plates (Thermo Fisher) were used for ELISA assays. Plates were initially coated overnight at 4° C. with BSA-biotin (10 g/ml; 50 μl/well). The next day, the contents were discarded and the plates incubated at RT with streptavidin (10 g/ml; 50 μl/well) for 1 h. The contents were discarded and the plates incubated with recombinant biotinylated HLA-A2/peptide complexes (5 μg/ml; 50 μl/well) at RT for 1 h. The plates were then incubated with 2% milk PBS (150 μl/well) at RT for 1 h. After blocking, the plates were washed 3 times with PBS and then incubated with bacterial supernatant from their respective HB2151 culture plate wells, purified scFv, or purified scFv-Fc at RT for 1 h. After the contents were discarded, the plates were washed 5 times with PBS, and then incubated with a horse radish peroxidase (HRP) conjugated mouse-anti-Flag tag antibody (1:5000 dilution, Sigma Aldrich) to detect the scFv, or a HRP conjugated goat-anti-human Fc antibody (0.5 μg/ml, Jackson Immunoresearch Laboratories) to detect the scFv-Fc. […]
Assay [38] concerns the target HLA-A2/WT1 187-195 (…) complex (human, biotin at a specific biotinylation site at the C-terminus). Briefly: ELISA on wells coated with the named HLA-A2/peptide monomer, HRP anti-Flag detection, OD 490 nm.
Assay [39] has as its target HLA-A2/WT1 235-243 (…) complex (human, biotin at a specific biotinylation site at the C-terminus). Described as above.
A further assay concerns the target T3, HLA-A2/CDR2 (…) tetramer (human).
T3 construct: Peptide from cerebellar degeneration-related protein 2; also called negative control (HLA-A2-CDR2) tetramer; irrelevant HLA-A2/CDR2-derived peptide
Briefly: flow cytometry of CAR NK-92 cells, control HLA-A2/CDR2 tetramer (y) against GFP (x).

In assay [40] the target is T2, biotinylated HLA-A2/WT1126 (…) monomer. The assay can be described thus: ELISA: wells coated with HLA-A2-WT1 (…) monomer, serially diluted scFv, HRP anti-Flag detection, OD 490 nm.
Procedure: as §1

Where a chain is given by its changes, count along the chain named. In names and notes the source's numbering stands.

BB7.2 (antibody): the Ratio (BB7.2/isotype) of mean fluorescence intensity in assay [1] stood at 15.8; in assay [2], 16.2; in assay [3], 28.3; in assay [4] it was 40.5; in [5], 53.3; in assay [6], 28.8. Also, the Ratio (BB7.2/isotype) of mean fluorescence intensity turned out to be 14.4 in assay [7]; 7.8 in [8]; 77.5 in [9]; 86.8 in [10]; 1.1 in assay [11]; 111 in [12]. For the same molecule, the Ratio (BB7.2/isotype) of mean fluorescence intensity in assay [13] worked out at 5.1; in [14] it was 165; in assay [15], 4.5; in [16] it was 53.9; in assay [17] it was 118; in assay [18], 10. The Ratio (BB7.2/isotype) of mean fluorescence intensity in assay [19] came out at 7.7; in [20], 0.9; in [21] it was 9.9; in assay [22], 209; in assay [23], 1; in [24], 32.1. Besides, the Ratio (BB7.2/isotype) of mean fluorescence intensity in assay [25] is 114; in assay [26], 21.7; in [27], 0.9; in [28] it was 6.2; in assay [29], 1.1; in assay [30], 1.1. Also, the Ratio (BB7.2/isotype) of mean fluorescence intensity in assay [31] is 26.8; in assay [32] it was 10.9; in assay [33] it was 1.1; in [34], 6.4; in assay [35], 32.6.

B1: WT1126 peptide (RMFPNAPYL) by itself (peptide)
peptide: RMFPNAPYL
notes: also called WT1 peptide
Turning to B1, in the assay with HLA-A2 on T2 cells, the binding result is on record as “binds”.

B2: WT1126-Tyr8Ala peptide (peptide)
peptide: RMFPNAPAL
notes: also called A8
B2: in the assay with HLA-A2 on T2 cells, the binding result is given as “binds”.

B3: WT1126-Asn5Ala peptide (peptide)
peptide: RMFPAAPYL
notes: also called A5
Turning to B3, the binding result in the assay with HLA-A2 on T2 cells was “binds”.

B4: WT1126-Arg1Ala peptide (peptide)
peptide: AMFPNAPYL
notes: also called A1
In the case of B4, in the assay with HLA-A2 on T2 cells, the binding result was “binds”.

B5: Q1L scFv (scFv)
scFv: EVQLLESGGGLVQPGGSLRLSCAASGFTFSSYAMSWVRQAPGKGLEWVSLIDPWGQETLYADSVKGRFTISRDNSKNTLYLQMNSLRAEDTAVYYCAKLTGRFDYWGQGTLVTVSSGGGGSGGGGSGGGGSTDIQMTQSPSSLSASVGDRVTITCRASQSISSYLNWYQQKPGKAPKLLIYSASQLQSGVPSRFSGSGSGTDFTLTISSLQPEDFATYYCQQGPGTPNTFGQGTKVEIKRA
notes: Clone45 with VH-Q50L; Soluble scFv; also called scFv Q1L
As a reminder, the Kd is the free concentration of one partner at which half of the binding sites on the other are occupied at equilibrium, for simple one-to-one binding. For orientation: koff means the rate constant with which the complex falls apart. The low end stands for slow dissociation, the high end for fast dissociation. The kon is the second-order rate constant of association. High values mean faster complex formation, low ones slower complex formation. In assay [36], B5 showed a Kd of 58.3 nM, a koff of 0.0055 s⁻¹ and an on-rate (kon) of 94300 M⁻¹ s⁻¹.

B6: S3.3 scFv (scFv)
scFv: B5 scFv with D133N, Q185L, S197N
notes: Soluble scFv, Ni-NTA purified, detected with anti-Flag
For orientation: EC50 (read off the curve) means the concentration needed to bring the measured effect to its halfway point. Take B6: in assay [37], the 50% effective concentration (EC50 (read off the curve)) is approximately 40 nM. In assay [36], this molecule returned a Kd of 2.43 nM. Besides, the binding result in assay [38] and in assay [39] was “no binding” throughout.

B7: S3.1 scFv (scFv)
scFv: B5 scFv with R87G, S209N
notes: as for B6
With B7, the “EC50 (read off the curve)” value in [37] is approximately 60 nM. In addition, the Kd in [36] was determined as 12.9 nM. In addition, the binding result in assay [38] and in assay [39] was “no binding” in each case.

B8: S3.6 scFv (scFv)
scFv: B5 scFv with S163N, D202V
notes: as for B6
With B8, in assay [36], the Kd worked out at 14.1 nM. The binding result in assay [38] and in [39] was “no binding” throughout.

B9: Q2L-CAR (other)
chain: B5 scFv with Q185L
notes: Chimeric antigen receptor on the surface of human T cells or NK-92-MI cells; also called anti-HLA-A2/WT1126 CAR; NK-92-MI-scFv(Q2L); not shown: hinge region, CD8 alpha transmembrane domain, 4-1BB and CD3 zeta chain
Consider B9, for which the binding result with HLA-A2/CDR2 (…) tetramer is reported as “no binding”.

B10: Q2L scFv (scFv)
scFv: B5 scFv with Q185L
notes: Clone45 with VH-Q50L and VL-Q53L; Soluble scFv; also called scFv Q2L
Consider B10, for which the “EC50 (read off the curve)” value in assay [40] is approximately 100 nM. Also, the Kd in assay [36] was found to be 3.08 nM. Moreover, the binding result in [38] and in [39] was “no binding” in each case.

Values taken from US20160152725A1 (Memorial Sloan Kettering, published 2016).
